By Kd is commonly meant the concentration at which binding is half-saturated.

From US6500669, “Programmable genotoxic agents and uses therefor” (Massachusetts Institute of Technology) come the findings set out here.

The series concerns the target streptavidin (UniProt P22629 P22629:25-183). Put plainly: EMSA; half-maximum binding (C1/2) via biotin on the adduct; reversed by free d-biotin; 100 mM NaCl, MgCl2, pH 7.4, room temperature. Particulars: tags: Pierce; chain copies: 4; label: 5' 32P. The procedure: Gel Mobility Shift Assay. […] A constant amount of the lesioned U-17 (3200 cpm, ~0.1 nM) was used in each incubation, with the concentration of streptavidin varied from 0 to 50 nM. Free d-biotin (0.4 mM) was added into the incubation(s) where indicated. After electrophoresis, the gel was dried and exposed to x-ray film with an intensifying screen. The dried gel was also exposed to a PhorphorImager screen and the data were analyzed with IMAGEQUANT software (Molecular Dynamics, Sunnyvale, Calif.).

streptavidin, sequence (P22629 25-183, one chain of several): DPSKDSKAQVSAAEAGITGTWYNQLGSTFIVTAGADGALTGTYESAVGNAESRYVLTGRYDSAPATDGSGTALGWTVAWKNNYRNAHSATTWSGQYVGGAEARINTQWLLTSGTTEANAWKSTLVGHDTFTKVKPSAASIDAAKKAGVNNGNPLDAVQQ

B1: TMP-biotin monoadducted U-17 (dsDNA)
DNA 1: CGGCCGTACGUGCGCCG
DNA 2: CGGCGCACGTACGGCCG
modifications: TMP-biotin (psoralen-biotin) monoadduct at T7 of the central TA; deoxyuridine at position 11
In the case of B1, the Kd is roughly 1.5 nM.
